According to a protein production outcome set (Wang et al. 2014):

Test: label from the status in PepcDB records

| Sequence | protein production |
| --- | --- |
| AAKQDVKVFSEDGTSKVVEILADMTARDLCQLLVYKSHCVDDNSWTLVEHHPHLGLERCLEDHELVVQVESTMASESKFLFRKNYAKYEFFK | failed |
| AALAAKVRTLGPSMTRSMQRVAEAVAGDPAGCAALTVTGLAELTGTSEATVVRTARLLGYPGYRDLRLALAGLAAQQQSGRAPAITTDIAVDDPIADVVAKLAYDEQQTL | failed |
| AAPPAPAAKPGSPKKRGKTEVNESLLTPRFYTTDFDEMEQLFNAEINKQLNQDEFDALLQEFKTDYNQTHFIRNPEFKEAADKMQGPLRQIFVEFLERSCTAEFSGFLLYKELGRRLKKTNPVVAEIFSLMSRDEARHAGFLNKGLSDFNLALDLGFLTKARKYTFFKPKFIFYATYLSEKIGYWRYITIFRHLKANPEYQVYPIFKYFENWCQDENRHGDFFSALLKAQPQFLNDWKAKLWSRFFCLSVYITMYLNDCQRSAFYEGIGLNTKEFDMHVIYETNRTTARIFPAVPDVENPEFKRKLDRMVDINLKIISIGESNDLPLVKNLKRVPLIAQLVSEIIAAYLMPPIESGSVDFAEFEPKLVY | failed |
| AAQEKVVKLKIVQTSDVHGNYYPYNFITRKDWQGSLARIYAFVEKEREQYKENLILLDNGDILQGQPTAYYYNYIDTVSPHLCAEMMNYMKYDAGNMGNHDVETGRAVFDRWINTCDFPVLGANIIDISTGEPHLPPYKVMERDGVKIVILGMITPAIPAWLSENLWKGLRFDDMEETARKWMKIIREKENPDLMIGLFHAGQEAFKMSGKYNENASLSVAKNVPGFDIVLMGHDHARECKKVMNVAGDSVLVIDPASNGIVLSNIDVTLKLKDGKVRSKDIKGVLTETKDYGISEDFMKNFAPQYDTVRNFVSK | failed |
| AAQGFVFNLDNPIFKDRRVREALSLLWDFDWINRRVMRNFYVREQSYFPKSDMAATELPTPAELKILEPLRGQVPDEVFTTVYQPPKTDGSGYIRDKQLQALKLLAEAGWHPKNNKLVNAAGEPMVFSFLDGQGGFDRLILPFKRTLAQIGITLDFLRIDSAQYINRLNARDYDMIVVSLPKNGNPIISPGRELYNLYGSQSATEVGSSNAMVLRNPAVDTLIDGLVSANTRNDMVLYARALDRVLQWGYYMIPNYYSK | failed |
| ADIVNLQGVTGGNTYSVPAVTMDLLSGKDVAVEEFPRKLLTFKEKLGEGQFGEVHLCEVEGMEKFKDKDFALDVSANQPVLVAVKMLRADANKNARNDFLKEIKIMSRLKDPNIIHLLAVCITDDPLCMITEYMENGDLNQFLSRHEPPNSSSSDVRTVSYTNLKFMATQIASGMKYLSSLNFVHRDLATRNCLVGKNYTIKIADFGMSRNLYSGDYYRIQGRAVLPIRWMSWESILLGKFTTASDVWAFGVTLWETFTFCQEQPYSQLSDEQVIENTGEFFRDQGRQTYLPQPAICPDSVYKLMLSCWRRDTKNRPSFQEIHLLLLQQGDE | failed |
| AELQQTEKASAKKQDKAEIRNVIVMIGDGMGTPYIRAYRSMKNNGDTPNNPKLTEFDRNLTGMMMTHPDDPDYNITDSAAAGTALATGVKTYNNAIGVDKNGKKVKSVLEEAKQQGKSTGLVATSEINHATPAAYGAHNESRKNMDQIANSYMDDKIKGKHKIDVLLGGGKSYFNRKNRNLTKEFKQAGYSYVTTKQALKKNKDQQVLGLFADGGLAKALDRDSKTPSLKDMTVSAIDRLNQNKKGFFLMVEGSQIDWAAHDNDTVGAMSEVKDFEQAYKAAIEFAKKDKHTLVIATADHTTGGFTIGANGEKNWHAEPILSAKKTPEFMAKKISEGKPVKDVLARYANLKVTSEEIKSVEAAAQADKSKGASKAIIKIFNTRSNSGWTSTDHTGEEVPVYAYGPGKEKFRGLINNTDQANIIFKILKTGK | failed |
| AEVDQATKPAEAKYYIAGTITDATTGQELTTAKVTLGDKSVTSSFNEQVNYKAEGYALVVSADGYYPVKRQVYLNQVSDGQTSVATVNVALVSVEAAVIPPVVPPTDPETDINEGEATKVADKAVEVAKPSESTVTDMLAGTTATPEEKKALDETLEMAGGMKVGETTPEVLADGSILAITPVKFTNPIQDAPAMVPYFYNEGCELTGDVKEVAAPVTRADGAVAADIQKAFLSNAAKALNMNAGFVQKIGYTRISVLNGYSILGYTIKGQLVSKKLTFLISGKYYEGIVSYQKSVMIYPNYYSHDSHDSHDSHGFNPNAGGGSND | not failed |
| AFLNKHFAKKNHNISVDELSHALELTDKAELTEENNILEGIIRFGGETAKEVMTSRLDVVDLDIRTPFKDVIQCIIDNAYSRIPIYSGTRDNIKGVLYIKDLLPHLNKGDNFRWQSLIRPAYFVPETKMIDDLLRDFQANKIHIAIVVDEFGGTSGIVTMEDIIEEIVGEIHDEYDD | not failed |
